Measurements reported in publication PMC9253567, “The Role of ZAP and TRIM25 RNA Binding in Restricting Viral Translation” (Frontiers in Cellular and Infection Microbiology, 2022).

Key:
[1] = target: T1, myc-tagged TRIM25 WT (tripartite motif-containing protein 25) (UniProt Q14258 1-630); assay: cell-based or functional assay
[2] = target: T1, myc-tagged TRIM25 WT (tripartite …); assay: co-IP; myc IP (anti-myc beads) of myc-TRIM25 WT from lysates of ZAP KO 293T cells co-transfected with FLAG-ZAPS or FLAG-ZAPL WT or mutants; FLAG-ZAP detected by immunoblot; FLAG IP buffer (100 mM Tris-HCl 8.0, 150 mM NaCl, 5 mM EDTA, 1 mM DTT, 5% glycerol, 0.1% NP-40), 4°C, 45 min; FLAG IP band divided by myc IP band (ImageJ); conditions: partners not purified

T1 sequence (Q14258 whole entry): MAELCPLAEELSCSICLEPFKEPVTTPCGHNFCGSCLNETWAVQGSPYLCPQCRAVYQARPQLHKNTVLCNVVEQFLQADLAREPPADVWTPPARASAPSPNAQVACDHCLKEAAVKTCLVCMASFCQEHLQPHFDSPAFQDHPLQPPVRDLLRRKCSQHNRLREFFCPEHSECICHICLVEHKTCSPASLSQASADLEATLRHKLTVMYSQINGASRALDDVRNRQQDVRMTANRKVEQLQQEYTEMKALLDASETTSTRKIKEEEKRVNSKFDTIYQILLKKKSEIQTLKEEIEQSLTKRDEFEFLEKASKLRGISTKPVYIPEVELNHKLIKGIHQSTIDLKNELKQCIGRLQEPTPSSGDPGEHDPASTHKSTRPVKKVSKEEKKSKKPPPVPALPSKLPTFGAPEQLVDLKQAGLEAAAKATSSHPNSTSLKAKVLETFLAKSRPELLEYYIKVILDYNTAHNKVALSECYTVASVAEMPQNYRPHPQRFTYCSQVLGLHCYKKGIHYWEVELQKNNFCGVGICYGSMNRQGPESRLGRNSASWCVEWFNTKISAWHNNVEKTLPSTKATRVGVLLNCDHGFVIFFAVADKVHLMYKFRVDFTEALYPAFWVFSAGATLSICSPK

| Binder | JEV translation inhibition: fold inhibition of Renilla luciferase from a replication-defective JEV replicon, relative to empty plasmid, ZAP KO 293T cells, 4 h after replicon transfection [1] | ZAP-TRIM25 interaction (co-IP, FLAG-ZAP band over myc-TRIM25 band, ImageJ) [2] |
| --- | --- | --- |
| FLAG-tagged ZAPL C88R (ZnF 2 mutant) (natural protein, human, UniProt Q7Z2W4-1 1-902, looked up, zinc finger antiviral protein (ZAP), long isoform ZAPL, cloned from pTRIP-TagRFP-hZAPL; source: ZAP KO 293T cells, transfected (pcDNA3.1-3XFLAG), in lysate; not shown: 3XFLAG, N-terminal, kept) MADPEVCCFITKILCAHGGRMALDALLQEIALSEPQLCEVLQVAGPDRFVVLETGGEAGITRSVVATTRARVCRRKYCQRPCDNLHLRKLNLLGRCNYSQSERNLCKYSHEVLSEENFKVLKNHELSGLNKEELAVLLLQSDPFFMPEICKSYKGEGRQQICNQQPPCSRLHICDHFTRGNCRFPNCLRSHNLMDRKVLAIMREHGLNPDVVQNIQDICNSKHMQKNPPGPRAPSSHRRNMAYRARSKSRDRFFQGSQEFLASASASAERSCTPSPDQISHRASLEDAPVDDLTRKFTYLGSQDRARPPSGSSKATDLGGTSQAGTSQRFLENGSQEDLLHGNPGSTYLASNSTSAPNWKSLTSWTNDQGARRKTVFSPTLPAARSSLGSLQTPEAVTTRKGTGLLSSDYRIINGKSGTQDIQPGPLFNNNADGVATDITSTRSLNYKSTSSGHREISSPRIQDAGPASRDVQATGRIADDADPRVALVNDSLSDVTSTTSSRVDDHDSEEICLDHLCKGCPLNGSCSKVHFHLPYRWQMLIGKTWTDFEHMETIEKGYCNPGIHLCSVGSYTINFRVMSCDSFPIRRLSTPSSVTKPANSVFTTKWIWYWKNESGTWIQYGEEKDKRKNSNVDSSYLESLYQSCPRGVVPFQAGSRNYELSFQGMIQTNIASKTQKDVIRRPTFVPQWYVQQMKRGPDHQPAKTSSVSLTATFRPQEDFCFLSSKKYKLSEIHHLHPEYVRVSEHFKASMKNFKIEKIKKIENSELLDKFTWKKSQMKEEGKLLFYATSRAYVESICSNNFDSFLHETHENKYGKGIYFAKDAIYSHKNCPYDAKNVVMFVAQVLVGKFTEGNITYTSPPPQFDSCVDTRSNPSVFVIFQKDQVYPQYVIEYTEDKACVIS | 5.19 fold inhibition relative to empty plasmid transfection | 1.13 |
| FLAG-tagged ZAPL H176A/F184A/R189A (natural protein, human, UniProt Q7Z2W4-1 1-902, looked up, zinc finger antiviral protein (ZAP), long isoform ZAPL, cloned from pTRIP-TagRFP-hZAPL; also called ZAPL HFR; HFR; source: ZAP KO 293T cells, transfected (pcDNA3.1-3XFLAG), in lysate; not shown: 3XFLAG, N-terminal, kept) MADPEVCCFITKILCAHGGRMALDALLQEIALSEPQLCEVLQVAGPDRFVVLETGGEAGITRSVVATTRARVCRRKYCQRPCDNLHLCKLNLLGRCNYSQSERNLCKYSHEVLSEENFKVLKNHELSGLNKEELAVLLLQSDPFFMPEICKSYKGEGRQQICNQQPPCSRLHICDAFTRGNCRAPNCLASHNLMDRKVLAIMREHGLNPDVVQNIQDICNSKHMQKNPPGPRAPSSHRRNMAYRARSKSRDRFFQGSQEFLASASASAERSCTPSPDQISHRASLEDAPVDDLTRKFTYLGSQDRARPPSGSSKATDLGGTSQAGTSQRFLENGSQEDLLHGNPGSTYLASNSTSAPNWKSLTSWTNDQGARRKTVFSPTLPAARSSLGSLQTPEAVTTRKGTGLLSSDYRIINGKSGTQDIQPGPLFNNNADGVATDITSTRSLNYKSTSSGHREISSPRIQDAGPASRDVQATGRIADDADPRVALVNDSLSDVTSTTSSRVDDHDSEEICLDHLCKGCPLNGSCSKVHFHLPYRWQMLIGKTWTDFEHMETIEKGYCNPGIHLCSVGSYTINFRVMSCDSFPIRRLSTPSSVTKPANSVFTTKWIWYWKNESGTWIQYGEEKDKRKNSNVDSSYLESLYQSCPRGVVPFQAGSRNYELSFQGMIQTNIASKTQKDVIRRPTFVPQWYVQQMKRGPDHQPAKTSSVSLTATFRPQEDFCFLSSKKYKLSEIHHLHPEYVRVSEHFKASMKNFKIEKIKKIENSELLDKFTWKKSQMKEEGKLLFYATSRAYVESICSNNFDSFLHETHENKYGKGIYFAKDAIYSHKNCPYDAKNVVMFVAQVLVGKFTEGNITYTSPPPQFDSCVDTRSNPSVFVIFQKDQVYPQYVIEYTEDKACVIS |  | 0.03 |
| FLAG-tagged ZAPL K107A/Y108A (natural protein, human, UniProt Q7Z2W4-1 1-902, looked up, zinc finger antiviral protein (ZAP), long isoform ZAPL, cloned from pTRIP-TagRFP-hZAPL; also called ZAPL KY; KY; source: ZAP KO 293T cells, transfected (pcDNA3.1-3XFLAG), in lysate; not shown: 3XFLAG, N-terminal, kept) MADPEVCCFITKILCAHGGRMALDALLQEIALSEPQLCEVLQVAGPDRFVVLETGGEAGITRSVVATTRARVCRRKYCQRPCDNLHLCKLNLLGRCNYSQSERNLCAASHEVLSEENFKVLKNHELSGLNKEELAVLLLQSDPFFMPEICKSYKGEGRQQICNQQPPCSRLHICDHFTRGNCRFPNCLRSHNLMDRKVLAIMREHGLNPDVVQNIQDICNSKHMQKNPPGPRAPSSHRRNMAYRARSKSRDRFFQGSQEFLASASASAERSCTPSPDQISHRASLEDAPVDDLTRKFTYLGSQDRARPPSGSSKATDLGGTSQAGTSQRFLENGSQEDLLHGNPGSTYLASNSTSAPNWKSLTSWTNDQGARRKTVFSPTLPAARSSLGSLQTPEAVTTRKGTGLLSSDYRIINGKSGTQDIQPGPLFNNNADGVATDITSTRSLNYKSTSSGHREISSPRIQDAGPASRDVQATGRIADDADPRVALVNDSLSDVTSTTSSRVDDHDSEEICLDHLCKGCPLNGSCSKVHFHLPYRWQMLIGKTWTDFEHMETIEKGYCNPGIHLCSVGSYTINFRVMSCDSFPIRRLSTPSSVTKPANSVFTTKWIWYWKNESGTWIQYGEEKDKRKNSNVDSSYLESLYQSCPRGVVPFQAGSRNYELSFQGMIQTNIASKTQKDVIRRPTFVPQWYVQQMKRGPDHQPAKTSSVSLTATFRPQEDFCFLSSKKYKLSEIHHLHPEYVRVSEHFKASMKNFKIEKIKKIENSELLDKFTWKKSQMKEEGKLLFYATSRAYVESICSNNFDSFLHETHENKYGKGIYFAKDAIYSHKNCPYDAKNVVMFVAQVLVGKFTEGNITYTSPPPQFDSCVDTRSNPSVFVIFQKDQVYPQYVIEYTEDKACVIS |  | 0.086 |
| FLAG-tagged ZAPL V72A/Y108A/F144A (natural protein, human, UniProt Q7Z2W4-1 1-902, looked up, zinc finger antiviral protein (ZAP), long isoform ZAPL, cloned from pTRIP-TagRFP-hZAPL; also called ZAPL VYF; VYF; source: ZAP KO 293T cells, transfected (pcDNA3.1-3XFLAG), in lysate; not shown: 3XFLAG, N-terminal, kept) MADPEVCCFITKILCAHGGRMALDALLQEIALSEPQLCEVLQVAGPDRFVVLETGGEAGITRSVVATTRARACRRKYCQRPCDNLHLCKLNLLGRCNYSQSERNLCKASHEVLSEENFKVLKNHELSGLNKEELAVLLLQSDPAFMPEICKSYKGEGRQQICNQQPPCSRLHICDHFTRGNCRFPNCLRSHNLMDRKVLAIMREHGLNPDVVQNIQDICNSKHMQKNPPGPRAPSSHRRNMAYRARSKSRDRFFQGSQEFLASASASAERSCTPSPDQISHRASLEDAPVDDLTRKFTYLGSQDRARPPSGSSKATDLGGTSQAGTSQRFLENGSQEDLLHGNPGSTYLASNSTSAPNWKSLTSWTNDQGARRKTVFSPTLPAARSSLGSLQTPEAVTTRKGTGLLSSDYRIINGKSGTQDIQPGPLFNNNADGVATDITSTRSLNYKSTSSGHREISSPRIQDAGPASRDVQATGRIADDADPRVALVNDSLSDVTSTTSSRVDDHDSEEICLDHLCKGCPLNGSCSKVHFHLPYRWQMLIGKTWTDFEHMETIEKGYCNPGIHLCSVGSYTINFRVMSCDSFPIRRLSTPSSVTKPANSVFTTKWIWYWKNESGTWIQYGEEKDKRKNSNVDSSYLESLYQSCPRGVVPFQAGSRNYELSFQGMIQTNIASKTQKDVIRRPTFVPQWYVQQMKRGPDHQPAKTSSVSLTATFRPQEDFCFLSSKKYKLSEIHHLHPEYVRVSEHFKASMKNFKIEKIKKIENSELLDKFTWKKSQMKEEGKLLFYATSRAYVESICSNNFDSFLHETHENKYGKGIYFAKDAIYSHKNCPYDAKNVVMFVAQVLVGKFTEGNITYTSPPPQFDSCVDTRSNPSVFVIFQKDQVYPQYVIEYTEDKACVIS |  | 0.574 |
| FLAG-tagged ZAPL E148A/K151A/R170A (natural protein, human, UniProt Q7Z2W4-1 1-902, looked up, zinc finger antiviral protein (ZAP), long isoform ZAPL, cloned from pTRIP-TagRFP-hZAPL; also called ZAPL EKR; EKR; source: ZAP KO 293T cells, transfected (pcDNA3.1-3XFLAG), in lysate; not shown: 3XFLAG, N-terminal, kept) MADPEVCCFITKILCAHGGRMALDALLQEIALSEPQLCEVLQVAGPDRFVVLETGGEAGITRSVVATTRARVCRRKYCQRPCDNLHLCKLNLLGRCNYSQSERNLCKYSHEVLSEENFKVLKNHELSGLNKEELAVLLLQSDPFFMPAICASYKGEGRQQICNQQPPCSALHICDHFTRGNCRFPNCLRSHNLMDRKVLAIMREHGLNPDVVQNIQDICNSKHMQKNPPGPRAPSSHRRNMAYRARSKSRDRFFQGSQEFLASASASAERSCTPSPDQISHRASLEDAPVDDLTRKFTYLGSQDRARPPSGSSKATDLGGTSQAGTSQRFLENGSQEDLLHGNPGSTYLASNSTSAPNWKSLTSWTNDQGARRKTVFSPTLPAARSSLGSLQTPEAVTTRKGTGLLSSDYRIINGKSGTQDIQPGPLFNNNADGVATDITSTRSLNYKSTSSGHREISSPRIQDAGPASRDVQATGRIADDADPRVALVNDSLSDVTSTTSSRVDDHDSEEICLDHLCKGCPLNGSCSKVHFHLPYRWQMLIGKTWTDFEHMETIEKGYCNPGIHLCSVGSYTINFRVMSCDSFPIRRLSTPSSVTKPANSVFTTKWIWYWKNESGTWIQYGEEKDKRKNSNVDSSYLESLYQSCPRGVVPFQAGSRNYELSFQGMIQTNIASKTQKDVIRRPTFVPQWYVQQMKRGPDHQPAKTSSVSLTATFRPQEDFCFLSSKKYKLSEIHHLHPEYVRVSEHFKASMKNFKIEKIKKIENSELLDKFTWKKSQMKEEGKLLFYATSRAYVESICSNNFDSFLHETHENKYGKGIYFAKDAIYSHKNCPYDAKNVVMFVAQVLVGKFTEGNITYTSPPPQFDSCVDTRSNPSVFVIFQKDQVYPQYVIEYTEDKACVIS |  | 0.196 |
| FLAG-tagged ZAPS H191R (ZnF 4 mutant) (natural protein, human, UniProt Q7Z2W4-2 1-699, looked up, zinc finger antiviral protein (ZAP), short isoform ZAPS, cloned from pTRIP-TagRFP-hZAPS; source: ZAP KO 293T cells, transfected (pcDNA3.1-3XFLAG), in lysate; not shown: 3XFLAG, N-terminal, kept) MADPEVCCFITKILCAHGGRMALDALLQEIALSEPQLCEVLQVAGPDRFVVLETGGEAGITRSVVATTRARVCRRKYCQRPCDNLHLCKLNLLGRCNYSQSERNLCKYSHEVLSEENFKVLKNHELSGLNKEELAVLLLQSDPFFMPEICKSYKGEGRQQICNQQPPCSRLHICDHFTRGNCRFPNCLRSRNLMDRKVLAIMREHGLNPDVVQNIQDICNSKHMQKNPPGPRAPSSHRRNMAYRARSKSRDRFFQGSQEFLASASASAERSCTPSPDQISHRASLEDAPVDDLTRKFTYLGSQDRARPPSGSSKATDLGGTSQAGTSQRFLENGSQEDLLHGNPGSTYLASNSTSAPNWKSLTSWTNDQGARRKTVFSPTLPAARSSLGSLQTPEAVTTRKGTGLLSSDYRIINGKSGTQDIQPGPLFNNNADGVATDITSTRSLNYKSTSSGHREISSPRIQDAGPASRDVQATGRIADDADPRVALVNDSLSDVTSTTSSRVDDHDSEEICLDHLCKGCPLNGSCSKVHFHLPYRWQMLIGKTWTDFEHMETIEKGYCNPGIHLCSVGSYTINFRVMSCDSFPIRRLSTPSSVTKPANSVFTTKWIWYWKNESGTWIQYGEEKDKRKNSNVDSSYLESLYQSCPRGVVPFQAGSRNYELSFQGMIQTNIASKTQKDVIRRPTFVPQWYVQQMKRGPE | 2.18 fold inhibition relative to empty plasmid transfection | 1.05 |
